Here are results for three substances from publication PMC6274713.

The target in one data set is MLL4 3500-3630 (UniProt O14686). In words: MST. Particulars: EMSA: LightShift RNA EMSA kit protocol, 1 or 2 nM RNA, 30 min at room temperature, 4 or 6% native PAGE, MST buffer, pH and temperature not given in the …. Background: Mobility shift assays separate free from complexed probe on a gel.
The target of another data set is MLL4 4210-4280 (UniProt O14686). In words: MST. Particulars: apparent Kd; EMSA: LightShift RNA EMSA kit protocol, 1 or 2 nM RNA, 30 min at room temperature, 4 or 6% native PAGE; MST buffer, pH and temperature not given in the ….

For HOTAIR440, the Kd is 100 nM with MLL4 3500-3630 (apparent, from T-jump, aggregation above 1:20 RNA:protein, no saturation) and 13000 nM in the data set with MLL4 4210-4280.

Turning to MEG3 full length, the Kd with MLL4 3500-3630 came out at 722 nM.

For the substance HOTAIR300, the Kd with MLL4 3500-3630 was 970 nM.
